B1: FLAG-tagged ELP1, purified recombinant (natural protein, human, UniProt O95163 1-1332, looked up)
chain: MRNLKLFRTLEFRDIQGPGNPQCFSLRTEQGTVLIGSEHGLIEVDPVSREVKNEVSLVAEGFLPEDGSGRIVGVQDLLDQESVCVATASGDVILCSLSTQQLECVGSVASGISVMSWSPDQELVLLATGQQTLIMMTKDFEPILEQQIHQDDFGESKFITVGWGRKETQFHGSEGRQAAFQMQMHESALPWDDHRPQVTWRGDGQFFAVSVVCPETGARKVRVWNREFALQSTSEPVAGLGPALAWKPSGSLIASTQDKPNQQDIVFFEKNGLLHGHFTLPFLKDEVKVNDLLWNADSSVLAVWLEDLQREESSIPKTCVQLWTVGNYHWYLKQSLSFSTCGKSKIVSLMWDPVTPYRLHVLCQGWHYLAYDWHWTTDRSVGDNSSDLSNVAVIDGNRVLVTVFRQTVVPPPMCTYQLLFPHPVNQVTFLAHPQKSNDLAVLDASNQISVYKCGDCPSADPTVKLGAVGGSGFKVCLRTPHLEKRYKIQFENNEDQDVNPLKLGLLTWIEEDVFLAVSHSEFSPRSVIHHLTAASSEMDEEHGQLNVSSSAAVDGVIISLCCNSKTKSVVLQLADGQIFKYLWESPSLAIKPWKNSGGFPVRFPYPCTQTELAMIGEEECVLGLTDRCRFFINDIEVASNITSFAVYDEFLLLTTHSHTCQCFCLRDASFKTLQAGLSSNHVSHGEVLRKVERGSRIVTVVPQDTKLVLQMPRGNLEVVHHRALVLAQIRKWLDKLMFKEAFECMRKLRINLNLIYDHNPKVFLGNVETFIKQIDSVNHINLFFTELKEEDVTKTMYPAPVTSSVYLSRDPDGNKIDLVCDAMRAVMESINPHKYCLSILTSHVKKTTPELEIVLQKVHELQGNAPSDPDAVSAEEALKYLLHLVDVNELYDHSLGTYDFDLVLMVAEKSQKDPKEYLPFLNTLKKMETNYQRFTIDKYLKRYEKAIGHLSKCGPEYFPECLNLIKDKNLYNEALKLYSPSSQQYQDISIAYGEHLMQEHMYEPAGLMFARCGAHEKALSAFLTCGNWKQALCVAAQLNFTKDQLVGLGRTLAGKLVEQRKHIDAAMVLEECAQDYEEAVLLLLEGAAWEEALRLVYKYNRLDIIETNVKPSILEAQKNYMAFLDSQTATFSRHKKRLLVVRELKEQAQQAGLDDEVPHGQESDLFSETSSVVSGSEMSGKYSHSNSRISARSSKNRRKAERKKHSLKEGSPLEDLALLEALSEVVQNTENLKDEVYHILKVLFLFEFDEQGRELQKAFEDTLQLMERSLPEIWTLTYQQNSATPVLGPNSTANSIMASYQQQKTSVPVLDAELFIPPKINRRTQWKLSLLD
notes: ELP1 (IKBKAP), cDNA excised from pCMV6-XL5-ELP1 (OriGene) and inserted into pcDNA3.1(+)-3xFLAG; Seen as a dimer after BS3 cross-linking; Purified in one step from human cells, so other Elongator subunits might be present (my surmise); also called FLAG-ELP1; ELP1 dimer

Key:
[1] = biological target: the molecule itself; assay: cross-linking; 10 µM of purified proteins in 0.1 M sodium phosphate, 0.15 M NaCl, pH 7.4, 30 min at RT; BS3 at 0, 0.1 and 0.5 mM for 1 h at 4 °C; gel shift read by immunoblot; single proteins with the highest amount of BS3 as controls
[2] = biological target: B1; assay: co-IP; purified proteins: 1 µg of protein with 1 µg of antibody overnight at 4 °C in 200 µl IP buffer (20 mM HEPES pH 7.9, 140 mM NaCl, 0.01% NP-40), Protein-A sepharose beads, immunoblot; details: both partners purified

binding result [2] | Binder | stoichiometry N [1]
– | B1 | 2
binds | AAG lacking 80 N-terminal amino acids, purified recombinant (domain or fragment, human, UniProt P29372 81-298, looked up, Alkyladenine DNA glycosylase (AAG, MPG), human, lacking the first 80 N-terminal amino acids; also called Δ80 AAG; ∆80AAG) GHLTRLGLEFFDQPAVPLARAFLGQVLVRRLPNGTELRGRIVETEAYLGPEDEAAHSRGGRQTPRNRGMFMKPGTLYVYIIYGMYFCMNISSQGDGACVLLRALEPLEGLETMRQLRSTLRKGTASRVLKDRELCSGPSKLCQALAINKSFDQRDLAQDEAVWLERGPLEPSEPAVVAAARVGVGHAGEWARKPLRFYVRGSPWVSVVDRVAEQDTQA | –

From paper PMC6884549, “Alkyladenine DNA glycosylase associates with transcription elongation to coordinate DNA repair with gene expression” (Nature Communications, 2019)
